Series [1] concerns the target T1, Mer extracellular domain (EC-Mer) (UniProt Q12866 Q12866:21-505).
T1 sequence: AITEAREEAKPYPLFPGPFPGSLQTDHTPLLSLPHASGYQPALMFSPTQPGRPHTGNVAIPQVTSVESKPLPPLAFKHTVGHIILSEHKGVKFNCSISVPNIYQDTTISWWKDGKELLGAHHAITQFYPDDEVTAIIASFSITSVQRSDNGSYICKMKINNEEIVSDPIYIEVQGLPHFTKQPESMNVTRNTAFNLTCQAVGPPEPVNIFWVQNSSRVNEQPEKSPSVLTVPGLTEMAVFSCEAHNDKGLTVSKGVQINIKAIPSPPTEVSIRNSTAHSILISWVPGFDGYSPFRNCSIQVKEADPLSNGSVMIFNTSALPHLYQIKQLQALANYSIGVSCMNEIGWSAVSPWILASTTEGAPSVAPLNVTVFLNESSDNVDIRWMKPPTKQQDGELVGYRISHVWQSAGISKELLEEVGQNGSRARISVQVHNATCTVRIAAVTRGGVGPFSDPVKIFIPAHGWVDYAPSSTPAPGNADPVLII
In words: filter; no Kd calculable up to 1000 nM protein; no binding or affinity at least 10^3 lower; PBS, 0.01% BSA, 37 C. Conditions: tags: soluble extracellular domain, R&D Systems; label: 5'-32P. As for the experimental part:
(§1) 1 nM of radiolabelled aptamers (GL21 52-85 or Unrelated) were incubated with 1, 3.2, 10, 32, 100, 320 and 1000 nM of Axl, Dtk, Mer soluble extracellular domain (all from R&D Systems, Minneapolis, Minn.) for 15 min at 37° in phosphate-buffered saline (PBS) supplemented with 0.01% bovine serum albumin.
(§2) After incubation, the aptamer-protein mix was passed through nitrocellulose membrane filter (Millipore Co., Bedford, Mass.) and filters were counted.

Series [2] has as its target Axl extracellular domain (EC-Axl) (UniProt P30530 P30530:26-451). In words: filter; PBS, 0.01% BSA, 37 C, 15 min; unrelated aptamer background subtracted. Conditions: tags: soluble extracellular domain, R&D Systems; label: 5'-32P. As for the experimental part:
as §1, §2

In series [3] the target is T2, Dtk (Tyro3) extracellular domain (EC-Dtk) (UniProt Q06418 Q06418:41-429).
T2 sequence: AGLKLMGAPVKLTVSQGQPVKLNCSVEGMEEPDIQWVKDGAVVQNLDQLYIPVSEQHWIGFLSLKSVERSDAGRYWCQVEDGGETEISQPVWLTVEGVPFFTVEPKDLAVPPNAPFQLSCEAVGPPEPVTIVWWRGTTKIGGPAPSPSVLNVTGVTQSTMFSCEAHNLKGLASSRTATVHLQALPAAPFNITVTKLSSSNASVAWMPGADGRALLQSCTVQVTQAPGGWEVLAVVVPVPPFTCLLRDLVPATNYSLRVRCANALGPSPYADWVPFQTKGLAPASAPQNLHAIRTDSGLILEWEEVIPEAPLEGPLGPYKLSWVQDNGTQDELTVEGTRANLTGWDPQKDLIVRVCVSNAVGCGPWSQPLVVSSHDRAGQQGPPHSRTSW
Described as above. Conditions: tags: soluble extracellular domain, R&D Systems; label: 5'-32P. As for the experimental part:
as §1, §2

Series [4] has as its target Axl receptor tyrosine kinase (cell surface) (Homo sapiens, UniProt P30530 P30530:26-894). The experiment in a line: binding to Axl-positive U87MG cells; reduced by Axl shRNA; binds Axl-transfected SKBr3 but not parental SKBr3. Conditions: label: 5'-32P.

Binding result and Kd data for one molecule are collected here from patent US20130197070, “AXL RECEPTOR TYROSINE KINASE APTAMER INHIBITOR FOR USE IN THERAPY” (CNR - CONSIGLIO NAZIONALE DELLE RICERCHE, published 2013).

Chain of Axl receptor tyrosine kinase (cell surface) (P30530 26-894, one chain of several): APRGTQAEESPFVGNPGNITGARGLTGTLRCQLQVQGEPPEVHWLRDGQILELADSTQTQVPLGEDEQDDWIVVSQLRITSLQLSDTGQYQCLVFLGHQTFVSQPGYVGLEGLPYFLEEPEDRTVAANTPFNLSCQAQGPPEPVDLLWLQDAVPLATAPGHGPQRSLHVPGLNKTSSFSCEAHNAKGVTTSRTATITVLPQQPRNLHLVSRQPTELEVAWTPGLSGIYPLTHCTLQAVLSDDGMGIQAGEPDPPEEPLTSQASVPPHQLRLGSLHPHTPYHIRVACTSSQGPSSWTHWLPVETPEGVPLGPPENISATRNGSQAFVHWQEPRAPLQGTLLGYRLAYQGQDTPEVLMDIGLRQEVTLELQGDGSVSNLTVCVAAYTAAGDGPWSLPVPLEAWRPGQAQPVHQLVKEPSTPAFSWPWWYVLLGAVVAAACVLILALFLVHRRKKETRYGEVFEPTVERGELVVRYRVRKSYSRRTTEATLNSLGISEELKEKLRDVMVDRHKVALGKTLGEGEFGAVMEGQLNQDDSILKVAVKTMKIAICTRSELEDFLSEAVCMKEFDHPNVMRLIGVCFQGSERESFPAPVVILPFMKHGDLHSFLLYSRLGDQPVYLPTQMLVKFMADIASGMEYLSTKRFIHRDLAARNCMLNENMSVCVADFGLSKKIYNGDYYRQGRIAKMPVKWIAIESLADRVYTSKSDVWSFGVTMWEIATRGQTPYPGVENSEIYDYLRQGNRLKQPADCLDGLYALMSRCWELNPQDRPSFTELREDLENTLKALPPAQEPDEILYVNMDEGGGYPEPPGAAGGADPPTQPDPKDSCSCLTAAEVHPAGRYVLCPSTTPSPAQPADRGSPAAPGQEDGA
Chain of Axl extracellular domain (EC-Axl) (P30530 26-451, one chain of several): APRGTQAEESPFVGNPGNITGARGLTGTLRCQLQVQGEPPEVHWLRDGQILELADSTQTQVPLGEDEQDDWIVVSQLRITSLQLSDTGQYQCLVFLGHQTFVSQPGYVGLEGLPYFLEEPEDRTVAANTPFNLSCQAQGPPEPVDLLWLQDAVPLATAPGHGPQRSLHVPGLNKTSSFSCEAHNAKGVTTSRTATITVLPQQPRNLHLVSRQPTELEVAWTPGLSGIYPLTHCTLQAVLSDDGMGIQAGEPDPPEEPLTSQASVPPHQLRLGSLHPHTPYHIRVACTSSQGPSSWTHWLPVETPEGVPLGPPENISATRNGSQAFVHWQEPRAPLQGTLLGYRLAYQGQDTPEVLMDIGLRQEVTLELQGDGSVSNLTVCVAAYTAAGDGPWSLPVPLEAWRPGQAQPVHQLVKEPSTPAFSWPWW

For AUGAUCAAUCGCCUCAAUUCGACAGGAGGCUCAC (ssRNA, 2'-F on all pyrimidines) [GL21 52-85 (GL21.T)], in series [1], the binding result was “no binding”. Further, the Kd in series [2] is 13 nM; in series [3], 47 nM; in series [4] it was 90 nM.

The term Kd denotes the free concentration of one partner at which half of the binding sites on the other are occupied at equilibrium, for simple one-to-one binding.
